# T1: PAI-1 (Mus musculus, UniProt P22777)
# T1 construct: from tissue; host or cells: BalbC Njrj mice, in vivo (blood)
# T1 sequence (P22777 23-402): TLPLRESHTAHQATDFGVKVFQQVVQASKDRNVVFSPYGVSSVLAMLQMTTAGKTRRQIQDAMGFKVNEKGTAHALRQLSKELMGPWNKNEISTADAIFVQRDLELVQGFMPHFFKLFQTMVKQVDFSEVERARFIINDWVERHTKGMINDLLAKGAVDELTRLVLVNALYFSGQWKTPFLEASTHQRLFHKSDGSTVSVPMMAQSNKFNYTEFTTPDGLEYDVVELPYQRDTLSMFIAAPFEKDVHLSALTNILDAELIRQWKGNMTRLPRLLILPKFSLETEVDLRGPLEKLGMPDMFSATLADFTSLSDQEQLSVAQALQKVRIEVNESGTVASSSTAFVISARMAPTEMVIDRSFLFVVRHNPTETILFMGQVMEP
# B1: 16K hPRL: 16K N-terminal human prolactin fragment, recombinant, produced and purified from E. coli (protein)
# chain: LPICPGGAARCQVTLRDLFDRAVVLSHYIHNLSSEMFSEFDKRYTHGRGFITKAINSCHTSSLATPEDKEQAQQMNQKDFLSLIVSILRSWNEPLYHLVTEVRGMQEAPEAILSKAVEIEEQTKRLLEGMELIVSQVHP
# Columns and labels:
# PAI-1 [1] = target: T2, PAI-1 (Homo sapiens, UniProt P05121); assay: Immunofluorescence staining on HUVEC, co-localization with His-tag PAI-1; format: cell-based; conditions: HUVECs, PAI-1 added to the medium with 16K PRL
# T2 construct: gift of Pr; P. Declerck
# T2 sequence (P05121 24-402): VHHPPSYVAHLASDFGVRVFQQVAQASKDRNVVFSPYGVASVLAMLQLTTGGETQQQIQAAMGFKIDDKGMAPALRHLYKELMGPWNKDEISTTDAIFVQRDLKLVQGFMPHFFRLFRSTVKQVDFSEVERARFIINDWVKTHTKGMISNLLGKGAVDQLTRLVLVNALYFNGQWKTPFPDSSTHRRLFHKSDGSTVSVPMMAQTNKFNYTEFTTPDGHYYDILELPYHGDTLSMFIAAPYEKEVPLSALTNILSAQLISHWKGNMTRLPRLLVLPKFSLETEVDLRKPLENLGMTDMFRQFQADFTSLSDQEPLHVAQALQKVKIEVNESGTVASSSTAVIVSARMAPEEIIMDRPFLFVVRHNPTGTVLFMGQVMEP
# Experimental: HUVECs were grown to 70% confluence on gelatin-coated 35-mm dishes. After incubation for 3 h with 14K GH (160 ng/ml) or 16K PRL (160 ng/ml), the cells were washed with PBS at room temperature and incubated for 1 h at room temperature under non-permeabilization conditions with mouse anti uPA (American Diagnostica INC) diluted 1/100, rabbit anti prolactin (Dako) diluted 1/100, or rabbit anti human GH (home made) diluted 1/100. Endothelial cells were washed in PBS and incubated with FITC horse anti mouse (Vector Laboratory) and Texas red goat anti rabbit antibodies (Jackson Laboratory). For PAI-1 staining, the cells were incubated simultaneously with Histag PAI-1 at 800 uM and 16K PRL or 14K GH. […] Cryostat tumor sections (5 μm thick) were fixed in acetone at −20° C. and in 100% methanol at 4° C. and then incubated with the primary antibodies, rat monoclonal anti PECAM-1, and rabbit polyclonal anti-prolactin (DAKO) for 1 hour at room temperature. The slides were washed and incubated with a Cy3 goat anti-rat and an FITC goat anti-rabbit antibody. After 3 washes in PBS for 10 min, the slides were covered with coverslips in mounting medium (Victor Laboratories Inc.) and analyzed by fluorescence microscopy.
# NF-κB = NF-κB p65 DNA-binding activity in HUVECs; format: cell-based, human; conditions: 16K PRL 50 nM 1 h
# Experimental: HUVECs were incubated for 2 h with 16K PRL and immunostained for uPA (red) or 16K PRL (green) and nuclei (DAPI, blue). Bottom panels: co-localization of PAI-1 and 16K PRL. To visualize added PAI-1 and not endogenous PAI-1, cells were incubated with His-tag PAI-1 and 16K PRL and stained for PAI-1 (red), 16K PRL (green), and nuclei (DAPI, blue). (B) Schematic outline of the proximity ligation assay (PLA) strategy showing primary antibody from different species for uPA and 16K PRL. Juxtaposition of secondary, oligonucleotide ligated antibodies allows a rolling circle amplification detected by a cy3-probe. (C) Detection of uPA/16K PRL complexes (red spots) on HUVECs by PLA. […]
# HUVECs were pre-treated with a blocking uPAR Ab 3 μg/ml (R&D system) or control IgG (SantaCruz) for 1 h and then incubated for 1 h with 16K PRL (50 nM). The p65 DNA-binding activity of NF-κB was quantified by ELISA (EZ Transcription Factor kit NF-κB p65 (Pierce)) according to the manufacturer's instructions on total protein extracts. Protein concentrations were determined by the […] using the BCA protein assay reagent (Pierce). NF-κB binding to the target oligonucleotide was detected by incubation with primary antibody specific for the activated form of p65, visualized by anti-IgG horseradish peroxidase conjugate and developing solution. Chemiluminescence was quantified with a luminometer.
# uPA = target: T3, uPA (Homo sapiens, UniProt P00749+P05121); assay: In situ proximity ligation assay (PLA) on HUVECs; format: cell-based
# T3 construct: endogenous in cells; host or cells: HUVEC
# Experimental: HUVECs were grown on gelatin-coated glass coverslips. After incubation for 2 h with 14K GH (50 nM) or 16K PRL (50 nM), the cells were washed with PBS at room temperature and fixed with 4% paraformaldehyde for 15 min, blocked, permeabilized and incubated overnight with mouse anti uPA (American Diagnostica Inc. Greenwich, Conn.) diluted 1/100 and rabbit anti prolactin (Dako) diluted 1/100, or rabbit anti human GH (home made) diluted 1/100. PLA was performed according to the manufacturer's instructions using the Duolink Detection Kit 563 (Olink Bioscience) with anti-mouse MINUS and anti-rabbit PLUS PLA probes. DAPI nucleus stain was added to the mounting media and the slides were analyzed by fluorescence microscopy.
# PAI-1 [2] = target: T1, PAI-1; assay: Murine thromboembolism model (tPA/thromboplastin); format: in vivo; conditions: recombinant 16K PRL 1 mg/kg i.v. 5 min before t-PA/thromboplastin; survival at 15 min; control group 73%; p=0.003
# Experimental: BalbC Njrj Mice were used and anesthetised with ketamine/xylazine throughout the whole experiment. Recombinant 16K PRL and adenovirus vectors 16K-Ad and Null-Ad were produced as described above. The animal experiment protocol used was approved by the Institutional Ethics Committee of the University of Liege.
# Recombinant 16K PRL (1 mg/kg) or POPRL 7-12 (10 mg/kg) were administrated via the vein to BalbC Njrj mice of approximately 15-18 g. Five minutes after the injection, a suboptimal concentration of t-PA (0.1 mg/kg) was injected immediately followed by i.v. injection of thromboplastin (3.3 μg/kg) to evoke thromboembolism. Mice were evaluated after 15 min for survival. For experiment with adenovirus vectors, mice were injected into the tail vein with 10^9 pfu of 16K hPRL adenovirus (16K-Ad) and their corresponding control (Null-Ad) 5 days before the injection a suboptimal concentration of t-PA (0.1 mg/kg) injected immediately followed by i.v. injection of thromboplastin (3.3 μg/kg).
# The fisher test was used to determine the significance of the differences in the mortality assays.
molecule,measurement,setting,value
B1,co-localization with PAI-1,PAI-1 [1],co-localization of 16K PRL and PAI-1 was observed
same,16K PRL-induced NF-κB signaling,NF-κB; blocking uPAR antibody pre-treatment 1 h,disrupts
same,"16K PRL response (NF-κB activity), requirement of uPA",NF-κB; pre-treatment with ATF of uPA,required
same,distance between uPA and 16K PRL,uPA,less than 40 nm
same,mortality,PAI-1 [2],32%

# Source: patent US20130035289A1, “PHARMACEUTICAL COMPOSITION FOR TREATMENT OF THROMBOSIS-RELATED DISEASES COMPRISING A FRAGMENT OF PROLACTIN (PRL)-GROWTH HORMONE (GH)-PLACENTAL LACTOGEN (PL)-FAMILY PROTEIN” (UNIVERSITE DE LIEGE, priority 2010, published 2013)
